Assay results taken from patent US9382305B2, “Relaxin fusion polypeptides and uses thereof” (BAYER INTELLECTUAL PROPERTY GMBH, priority 2011, dated 2016).
Like-named read-outs stand apart in the source and are kept apart here. Ends that are not written are not given here.

What was measured:
[1] = target: T1, human LGR7/RXFP1 receptor (Homo sapiens, UniProt Q9HBX9); assay: Activity testing: CRE-luciferase reporter in CHO-CRE-LGR7 cell line; type: cell-based; settings: for EC50 (M): luciferase after 6 hours, examples of three to five independent experiments
T1 construct: cloned as 2271 base pair long DNA fragment; expressed in transfected cells; host or cells: CHO K1 (ATCC CCL-61) with CRE-luciferase reporter; receptor in pcDNA3.1(-)
T1 sequence (Q9HBX9 1-757): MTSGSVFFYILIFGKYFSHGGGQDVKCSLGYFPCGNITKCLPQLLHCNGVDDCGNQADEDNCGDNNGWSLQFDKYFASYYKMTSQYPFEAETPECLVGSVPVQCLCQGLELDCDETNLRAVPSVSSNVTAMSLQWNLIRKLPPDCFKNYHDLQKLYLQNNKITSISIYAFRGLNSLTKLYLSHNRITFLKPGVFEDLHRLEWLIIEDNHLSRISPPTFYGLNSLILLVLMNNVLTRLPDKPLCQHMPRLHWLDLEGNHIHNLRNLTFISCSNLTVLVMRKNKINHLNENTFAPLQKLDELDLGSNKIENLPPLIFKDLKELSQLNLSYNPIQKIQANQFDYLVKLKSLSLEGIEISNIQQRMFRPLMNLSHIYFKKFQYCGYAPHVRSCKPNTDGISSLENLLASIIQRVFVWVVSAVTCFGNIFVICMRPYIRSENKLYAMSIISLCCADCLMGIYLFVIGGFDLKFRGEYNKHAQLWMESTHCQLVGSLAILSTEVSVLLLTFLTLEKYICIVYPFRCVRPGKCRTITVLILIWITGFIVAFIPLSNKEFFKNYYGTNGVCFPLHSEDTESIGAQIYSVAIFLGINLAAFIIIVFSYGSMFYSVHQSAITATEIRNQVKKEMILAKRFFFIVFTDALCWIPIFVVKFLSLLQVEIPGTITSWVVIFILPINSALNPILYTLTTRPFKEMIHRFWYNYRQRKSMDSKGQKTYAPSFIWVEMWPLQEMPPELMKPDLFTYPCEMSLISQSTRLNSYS
Procedure: For stimulation, medium was exchanged by OptiMem (Gibco, #11058)+1% FCS containing different concentrations of the recombinantly expressed Relaxin variant proteins (usually starting at a concentration of 100 nM, followed by 1:2 dilutions). As positive control, commercially available recombinant expressed human Relaxin 2 (Genbank Accession number NP_604390.1) was used (R&D Systems, catalogue number 6586-RN-025). Subsequently, cells were incubated for 6 hours in a humified incubator at 5% carbon dioxide at 37° C. After 6 hours cells were tested for Luciferase activity using a Luciferase Assay System (Promega, # E1500) and using the Tecan Infinite 500 reader, luminescence mode, 1000 milliseconds integration time, measurement time 30 seconds.

[2] = tested on: isolated perfused rat heart; assay: Isolated perfused rat heart (Langendorff); parameters: species or system Wistar rats
Procedure: Male Wistar rats (200-250 g) were anesthetized using Narcoren (100 mg/kg i.p.). The heart was rapidly excised and connected to a Langendorff perfusion system (FMI GmbH, Seeheim-Ober Beerbach, Germany). The heart was perfused at a constant rate of 10 ml/min with Krebs-Henseleit bicarbonate buffer solution equilibrated with 95% O2-5% CO2. The perfusion solution contained (in mmol/l): NaCl 118; KCl 3; NaHCO3 22; KH2PO41,2; MgSO4 1,2; CaCl2 1,8; Glucose 10; Na-Pyruvat 2. A pressure transducer registered the perfusion pressure in the perfusion system. The left ventricular pressure (LVP) was measured using a second pressure transducer connected to a water-filled balloon which was inserted into the left ventricle via the left atrium. The end diastolic pressure was initially set to 8 mm Hg by adjusting the volume of the balloon. The hearts were spontaneously beating. The signals from the pressure transducer were amplified, registered and used for the calculation of the heart frequency and +dp/dt by a personal computer.

[3] = In vivo plasma stability: serum levels by quantification ELISA after intravenous administration; settings: male Wistar rats, 240 μg/kg intravenously, three days after application
Procedure: Blood samples were collected at the indicated time points after application and serum levels of each protein were measured by using a quantification ELISA.
At time points 0 hour, 1 hour, 3 days, 5 days, and 7 days after compound administration, blood samples were taken and the concentrations of the Fc-single chain Relaxin and non-modified hRelaxin2 were determined using the commercially available quantification ELISA (R&D Systems, Human Relaxin-2 Quantikine ELISA Kit, catalogue number DRL200).

[4] = intravenously administrated, humans (Dschietzig T. et al. (2009)); cited from earlier work
[5] = Table 2, scR fusion protein constructs

Relaxin Fc: human Relaxin 2 (B chain-C chain-A chain) fused via IleGluGlyArgMetAsp to N terminal end of human IgG1 Fc
biological activity (activation of LGR7), in words [1]: no activity | EC50 (M) [1, 5]: not detectable | biological activity (activation of LGR7), in words ([1]; listed as human wildtype Relaxin 2 molecule with its orientation B chain-C chain-A chain f): does not show any detectable activity

hRelaxin 2: commercially available recombinant expressed human Relaxin 2 (R&D Systems, catalogue number 6586-RN-025), positive control (alpha QLYSALANKCCHVGCTKRSLARFC; beta SWMEEVIKLCGRELVRAQIAICGMSTWS; listed as Homo Sapiens)
contractility (inotropic activity) ([2]; concentration of 1 nM): negative inotrophic activity | coronary flow ([2]; concentration of 1 nM): increase | heart rate ([2]; concentration of 1 nM): increase | potency relative to scR-Fc 13 ([2]; isolated perfused rat heart): ten fold more potent | coronary flow ([2]; perfusion, FIG. 11): significant increase | heart rate ([2]; perfusion, FIG. 11): significant increase | left ventricular diastolic pressure ([2]; perfusion, FIG. 11): decrease | left ventricular pressure (+dp/dtmax) ([2]; perfusion, FIG. 11): decrease | serum concentration (ELISA) [3]: undetectable | half-life [4]: less than 10 minutes

scR14: single chain human Relaxin 3 A-L-B, linker GlyGlyGlySerGlyGlyGlySerGly; non-purified; SEQ ID NO: 14 (DVLAGLSSSCCKWGCSKSEISSLCGGGSGGGSGRAAPYGVRLCGREFIRAVIFTCGGSRW; ends and bridges not checked; cysteine pairing not given here)
biological activity (activation of LGR7), in words [1]: detectable biological activity

scR-Var7: single chain human Relaxin 2, linker LysArgSerLeuSerArgLysLysArg; B chain C terminus linked via IleGluGlyArgMetAsp to human IgG1 Fc; SEQ ID NO: 40
EC50 (M) [1, 5]: active (EC50 n.d.)

scR-Var8: human IgG1 Fc linked via IleGluGlyArgMetAsp to A chain N terminus; A-B linker LysArgSerLeuSerArgLysLysArg; SEQ ID NO: 41
EC50 (M) [1, 5]: active (EC50 n.d.)

B1: scR6: single chain human Relaxin 2 A-L-B, fifteen amino acid linker SEQ ID NO: 173; Myc, hemagglutinin, 6 Histidine tags; SEQ ID NO: 6 (protein)
chain: EQKLISEEDLQLYSALANKCCHVGCTKRSLARFCGGGSGGGSGGGSGGGSWMEEVIKLCGRELVRAQIAICGMSTWSYPYDVPDYAHHHHHH
EC50 (M) ([1]; Table 1, scR constructs): not detectable

B2: scR18: B chain of human Relaxin 2-linker SEQ ID NO: 139-A chain of human Relaxin 3; Myc tag; SEQ ID NO: 154 (protein)
chain: EQKLISEEDLSWMEEVIKLCGRELVRAQIAICGMSTWSGGGSGGGSGDVLAGLSSSCCKWGCSKSEISSLC
modifications: relaxin fusion polypeptide
EC50 (M) ([1]; Table 1, scR constructs): not detectable

B3: scR17: A chain of human Relaxin 3-linker SEQ ID NO: 139-B chain of human Relaxin 2; Myc tag; SEQ ID NO: 153 (protein)
chain: EQKLISEEDLDVLAGLSSSCCKWGCSKSEISSLCGGGSGGGSGSWMEEVIKLCGRELVRAQIAICGMSTWS
modifications: relaxin fusion polypeptide
biological activity (activation of LGR7), in words [1]: reduced activity

B4: scR15: single chain human Relaxin 3 A-L-B, linker GlyGlyGlySerGlyGlyGlySerGly; Myc tag; SEQ ID NO: 15 (protein)
chain: EQKLISEEDLDVLAGLSSSCCKWGCSKSEISSLCGGGSGGGSGRAAPYGVRLCGREFIRAVIFTCGGSRW
modifications: ends and bridges not checked
biological activity (activation of LGR7), in words [1]: detectable biological activity

B5: scR16: human Relaxin 2 B chain-linker GlyGlyGlySerGlyGlyGlySerGly-A chain; Myc tag; SEQ ID NO: 152 (protein)
chain: EQKLISEEDLSWMEEVIKLCGRELVRAQIAICGMSTWSGGGSGGGSGQLYSALANKCCHVGCTKRSLARFC
EC50 (M) ([1]; Table 1, scR constructs): not detectable

B6: scR19: A chain of human Relaxin 2-linker SEQ ID NO: 139-B chain of human Relaxin 3; Myc tag; SEQ ID NO: 155 (protein)
chain: EQKLISEEDLQLYSALANKCCHVGCTKRSLARFCGGGSGGGSGRAAPYGVRLCGREFIRAVIFTCGGSRW
modifications: ends and bridges not checked
biological activity (activation of LGR7), in words [1]: further reduction in the activity | EC50 (M) ([1]; Table 1, scR constructs): active (EC50 n.d.)

B7: scR13: single chain human Relaxin 2 A-L-B, linker LysArgSerLeuSerArgLysLysArg; non-purified; SEQ ID NO: 13 (protein)
chain: QLYSALANKCCHVGCTKRSLARFCKRSLSRKKRSWMEEVIKLCGRELVRAQIAICGMSTWS
modifications: ends and bridges not checked
biological activity (activation of LGR7), in words [1]: lower activity | EC50 (M) ([1]; Table 1, scR constructs): active (EC50 n.d.)

B8: scR-Fc 18: C terminal end of scR4 linked via 21 amino acid linker SEQ ID NO: 174 to human IgG1 Fc; SEQ ID NO: 33 (protein)
chain: QLYSALANKCCHVGCTKRSLARFCGGGSGGGSGSWMEEVIKLCGRELVRAQIAICGMSTWSGGGSGGGSGTLVTVSSESKYGPPCPPCPAPEAAAPELLGGPSVFLFPPKPKDTLMISRTPEVTCVVVDVSHEDPEVKFNWYVDGVEVHNAKTKPREEQYNSTYRVVSVLTVLHQDWLNGKEYKCKVSNKALPAPIEKTISKAKGQPREPQVYTLPPSRDELTKNQVSLTCLVKGFYPSDIAVEWESNGQPENNYKTTPPVLDSDGSFFLYSKLTVDKSRWQQGNVFSCSVMHEALHNHYTQKSLSLSPGK
modifications: relaxin fusion polypeptide
EC50 (M) [1, 5]: active (EC50 n.d.)

B9: scR20: B chain of human Relaxin 3-linker SEQ ID NO: 139-A chain of human Relaxin 2; Myc tag; SEQ ID NO: 156 (protein)
chain: EQKLISEEDLRAAPYGVRLCGREFIRAVIFTCGGSRWGGGSGGGSGQLYSALANKCCHVGCTKRSLARFC
modifications: ends and bridges not checked
EC50 (M) ([1]; Table 1, scR constructs): not detectable

B10: scR1: single chain human Relaxin 2 A-L-B, linker GlyGlyGly; Myc, hemagglutinin and 6 Histidine tags; SEQ ID NO: 1 (protein)
chain: EQKLISEEDLQLYSALANKCCHVGCTKRSLARFCGGGSWMEEVIKLCGRELVRAQIAICGMSTWSYPYDVPDYAHHHHHH
EC50 (M) ([1]; Table 1, scR constructs): not detectable

B11: scR2: single chain human Relaxin 2 A-L-B, linker GlyGlyGlySerGly; Myc, hemagglutinin and 6 Histidine tags; SEQ ID NO: 2 (protein)
chain: EQKLISEEDLQLYSALANKCCHVGCTKRSLARFCGGGSGSWMEEVIKLCGRELVRAQIAICGMSTWSYPYDVPDYAHHHHHH
EC50 (M) ([1]; Table 1, scR constructs): not detectable
